{"source": "patent US20180258140A1", "about": "“NEW DODECAPEPTIDES AND MICROCAPSULES FUNCTIONALISED WITH THEM TARGETED TO FIBROBLASTS” (Infinitec Activos, S.L., priority 2015, published 2018)", "key": {"FGFR2 Kinase": {"target": "FGFR2 Kinase (Homo sapiens, UniProt P21802)", "sequence (P21802 22-821)": "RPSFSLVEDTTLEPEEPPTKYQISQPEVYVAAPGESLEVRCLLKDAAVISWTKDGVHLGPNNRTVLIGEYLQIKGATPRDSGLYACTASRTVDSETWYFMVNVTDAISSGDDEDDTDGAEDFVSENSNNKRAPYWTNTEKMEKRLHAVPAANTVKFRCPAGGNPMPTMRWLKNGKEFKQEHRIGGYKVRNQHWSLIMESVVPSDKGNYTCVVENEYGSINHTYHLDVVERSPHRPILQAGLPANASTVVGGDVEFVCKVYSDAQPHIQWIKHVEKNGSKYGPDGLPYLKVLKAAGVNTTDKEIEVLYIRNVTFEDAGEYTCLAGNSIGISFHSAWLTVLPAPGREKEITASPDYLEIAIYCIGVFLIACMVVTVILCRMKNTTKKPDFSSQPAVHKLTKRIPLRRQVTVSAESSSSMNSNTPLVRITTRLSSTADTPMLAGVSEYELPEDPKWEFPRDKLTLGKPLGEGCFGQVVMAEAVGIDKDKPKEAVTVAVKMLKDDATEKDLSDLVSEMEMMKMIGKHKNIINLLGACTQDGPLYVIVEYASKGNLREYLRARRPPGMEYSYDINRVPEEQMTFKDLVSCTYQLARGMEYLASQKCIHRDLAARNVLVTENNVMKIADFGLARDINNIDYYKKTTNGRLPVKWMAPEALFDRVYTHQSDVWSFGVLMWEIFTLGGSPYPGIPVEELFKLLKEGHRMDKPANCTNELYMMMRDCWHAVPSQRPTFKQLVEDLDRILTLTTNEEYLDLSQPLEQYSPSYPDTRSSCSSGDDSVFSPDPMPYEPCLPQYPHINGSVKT", "test": "FGFR2 kinase inhibition", "type": "biochemical", "conditions": "percent inhibition of control enzyme activity; test concentration not given", "description": "[The source words this procedure for another target and reports this target under the same test.] Evaluation of the effects of the dodecapeptides of the invention on the activity of the human FGFR1 kinase were quantified by measuring the phosphorylation of the substrate Ulight-CAGAGAIETDKEYYTVKD (JAK1) using a human recombinant enzyme expressed in insect cells and the LANCE® detection method using the protocol described below:\nThe peptide to be tested, the reference compound or water (control) are mixed with the enzyme (0.252 ng) in a buffer containing 40 mM Hepes/Tris (pH 7.4), 0.8 mM EGTA/Tris, 8 mM MgCl2, 1.6 mM DTT and 0.008% Tween 20 (For control basal measurements, the enzyme is omitted from the reaction mixture). Thereafter, the reaction is initiated by adding 100 nM of the substrate Ulight-CAGAGAIETDKEYYTVKD (SEQ ID NO: 13) (JAK-1 peptide) and 100 μM ATP, and the mixture is incubated for 60 min at room temperature. Following incubation, the reaction is stopped by adding 13 mM EDTA. After 5 min, the anti-phospho-PT66 antibody labeled with europium chelate (EU-W1024-labeled Anti-Phosphotyrosine Antibody PT66, from Perkin Elmer) is added. After 60 more min, the fluorescence transfer is measured at λex=337 nm, λem=620 nm and λem=665 nm using a microplate reader (Envision, Perkin Elmer).\nThe enzyme activity is determined by dividing the signal measured at 665 nm by that measured at 620 nm (ratio). The results are expressed as a percent inhibition of the control enzyme activity.\nThe standard inhibitory reference compound is staurosporine, which is tested in each experiment at several concentrations to obtain an inhibition curve from which its IC50 value is calculated.\nResults showing an inhibition (or stimulation for assays run in basal conditions) higher than 20% are considered to represent significant effects of the peptides of the invention."}, "human keratinocytes": {"tested_on": "human keratinocytes", "test": "Cytotoxicity assay (MTT) in keratinocytes", "type": "cell-based", "conditions": "positive control 0.1% SDS, 48h incubation", "description": "(§1) Human dermal fibroblasts and human keratinocytes were used. The isolated cells were cultured in DMEM culture medium supplemented with 10% FCS and were incubated at 37° C. for maintenance treatment. Untreated cells were used as negative control. The positive control was 0.1% SDS. The microcapsules as obtained in Example 2 were tested in the DMEM culture medium at 0.03%. These weight percentages refer to the weight of the microcapsule in relation to the total weight. Cells were seeded at 20000 cells per well in a 96-well plate. 24 hours after seeding, cells were incubated under the conditions described above. After 48h of incubation at 37° C., the culture medium was removed and the MTT reagent was added. Cells were incubated 2 hours at 37° C. DMSO was then added and the absorbance of the formed formazan salt was measured at A 570 nm. Lower absorbance values correspond to cells with lower metabolic activity, which correlates with an increased damage and, therefore, with an increased cytotoxic effect. Thus, the amount of living cells is proportional to the amount of formazan produced."}, "Human dermal fibroblasts": {"tested_on": "Human dermal fibroblasts", "test": "Cytotoxicity assay (MTT) in fibroblasts", "type": "cell-based", "conditions": "positive control 0.1% SDS, 48h incubation", "description": "as §1"}}, "note": "*: point of attachment. Palmitoyl = CCCCCCCCCCCCCCCC(=O)*"}
{"compound": "Palm-Lys-Phe-Asn-Leu-Pro-Leu-Gly-Asn-Ala-Lys-Lys-Pro-NH2 (Palmitoyl-KFNLPLGNAKKP-NH2; SMILES CCCCCCCCCCCCCCCC(=O)N[C@@H](CCCCN)C(=O)N[C@@H](Cc1ccccc1)C(=O)N[C@@H](CC(N)=O)C(=O)N[C@@H](CC(C)C)C(=O)N1CCC[C@H]1C(=O)N[C@@H](CC(C)C)C(=O)NCC(=O)N[C@@H](CC(N)=O)C(=O)N[C@@H](C)C(=O)N[C@@H](CCCCN)C(=O)N[C@@H](CCCCN)C(=O)N1CCC[C@H]1C(N)=O) [Peptide 9]", "values": [{"measurement": "FGFR2 Kinase % Inhibition", "setting": "FGFR2 Kinase", "result": 99.4, "unit": "%"}]}
{"compound": "Palm-Lys-Phe-Asn-Leu-Pro-Leu-Gly-Asn-Tyr-Ala-Lys-Pro-NH2 (Palmitoyl-KFNLPLGNYAKP-NH2; SMILES CCCCCCCCCCCCCCCC(=O)N[C@@H](CCCCN)C(=O)N[C@@H](Cc1ccccc1)C(=O)N[C@@H](CC(N)=O)C(=O)N[C@@H](CC(C)C)C(=O)N1CCC[C@H]1C(=O)N[C@@H](CC(C)C)C(=O)NCC(=O)N[C@@H](CC(N)=O)C(=O)N[C@@H](Cc1ccc(O)cc1)C(=O)N[C@@H](C)C(=O)N[C@@H](CCCCN)C(=O)N1CCC[C@H]1C(N)=O) [Peptide 10]", "values": [{"measurement": "FGFR2 Kinase % Inhibition", "setting": "FGFR2 Kinase", "result": 93.4, "unit": "%"}]}
{"compound": "Palm-Lys-Phe-Asn-Leu-Pro-Leu-Gly-Asn-Tyr-Lys-Lys-Pro-NH2 (Palmitoyl-KFNLPLGNYKKP-NH2; SMILES CCCCCCCCCCCCCCCC(=O)N[C@@H](CCCCN)C(=O)N[C@@H](Cc1ccccc1)C(=O)N[C@@H](CC(N)=O)C(=O)N[C@@H](CC(C)C)C(=O)N1CCC[C@H]1C(=O)N[C@@H](CC(C)C)C(=O)NCC(=O)N[C@@H](CC(N)=O)C(=O)N[C@@H](Cc1ccc(O)cc1)C(=O)N[C@@H](CCCCN)C(=O)N[C@@H](CCCCN)C(=O)N1CCC[C@H]1C(N)=O) [Peptide 1]", "values": [{"measurement": "FGFR2 Kinase % Inhibition", "setting": "FGFR2 Kinase", "result": 95.4, "unit": "%"}]}
{"compound": "CCCCCCCCCCCCOS(=O)(=O)[O-].[Na+]", "note": "[SDS, Sodium dodecyl sulfate]", "values": [{"measurement": "Keratinocytes % cell viability", "setting": "human keratinocytes", "result": 12, "unit": "%"}, {"measurement": "Fibroblasts % cell viability", "setting": "Human dermal fibroblasts", "result": 25.0, "unit": "%"}]}
{"compound": "Palm-Lys-Phe-Asn-Leu-Pro-Leu-Gly-Ala-Tyr-Lys-Lys-Pro-NH2 (Palmitoyl-KFNLPLGAYKKP-NH2; SMILES CCCCCCCCCCCCCCCC(=O)N[C@@H](CCCCN)C(=O)N[C@@H](Cc1ccccc1)C(=O)N[C@@H](CC(N)=O)C(=O)N[C@@H](CC(C)C)C(=O)N1CCC[C@H]1C(=O)N[C@@H](CC(C)C)C(=O)NCC(=O)N[C@@H](C)C(=O)N[C@@H](Cc1ccc(O)cc1)C(=O)N[C@@H](CCCCN)C(=O)N[C@@H](CCCCN)C(=O)N1CCC[C@H]1C(N)=O) [Peptide 8]", "values": [{"measurement": "FGFR2 Kinase % Inhibition", "setting": "FGFR2 Kinase", "result": 98.8, "unit": "%"}]}
{"compound": "Palm-Lys-Phe-Asn-Leu-Pro-Leu-Gly-Asn-Tyr-Lys-Lys-Ala-NH2 (Palmitoyl-KFNLPLGNYKKA-NH2; SMILES CCCCCCCCCCCCCCCC(=O)N[C@@H](CCCCN)C(=O)N[C@@H](Cc1ccccc1)C(=O)N[C@@H](CC(N)=O)C(=O)N[C@@H](CC(C)C)C(=O)N1CCC[C@H]1C(=O)N[C@@H](CC(C)C)C(=O)NCC(=O)N[C@@H](CC(N)=O)C(=O)N[C@@H](Cc1ccc(O)cc1)C(=O)N[C@@H](CCCCN)C(=O)N[C@@H](CCCCN)C(=O)N[C@@H](C)C(N)=O) [Peptide 12]", "values": [{"measurement": "FGFR2 Kinase % Inhibition", "setting": "FGFR2 Kinase", "result": 90.1, "unit": "%"}]}
{"compound": "Palm-Lys-Phe-Asn-Leu-Pro-Leu-Gly-Asn-Tyr-Lys-Ala-Pro-NH2 (Palmitoyl-KFNLPLGNYKAP-NH2; SMILES CCCCCCCCCCCCCCCC(=O)N[C@@H](CCCCN)C(=O)N[C@@H](Cc1ccccc1)C(=O)N[C@@H](CC(N)=O)C(=O)N[C@@H](CC(C)C)C(=O)N1CCC[C@H]1C(=O)N[C@@H](CC(C)C)C(=O)NCC(=O)N[C@@H](CC(N)=O)C(=O)N[C@@H](Cc1ccc(O)cc1)C(=O)N[C@@H](CCCCN)C(=O)N[C@@H](C)C(=O)N1CCC[C@H]1C(N)=O) [Peptide 11]", "values": [{"measurement": "FGFR2 Kinase % Inhibition", "setting": "FGFR2 Kinase", "result": 89.9, "unit": "%"}]}
